B1: GT29-7: Ginseng UDP-glycosyltransferase, 446 amino acids, SEQ ID NO: 16 (protein)
chain: MDNQKGRISIALLPFLAHGHISPFFELAKQLAKRNCNVFLCSTPINLSSIKNRVSDKDSSASIKLVELHLPSSPDLPPHYHTTNGLPSHLMIPLRNAFDTAGPTFSEILKTLNPDLLIYDFNPSWAPEIASSHNIPAVCFIIGGAASSSMSLHSFKNPGEKYPFLDFDDNSNITPEPPSADNMKLLINFMTCFERSCDIILIKSFRELEGKYFDFFSTLSDKTLVPVGPLVQDPMGHNEDPKTEQFINWLDKRAESTVVFVCFGSECFLSNEELEEVAIGLEISMVNFIWAVRLIEGEKKGVLPEGFVQRVGDRGLVVEEWAPQARILGHSSTGGFVSHCGWNSITESMKFGVPVIAMARHFDQPLNGKLAAEVGVGMEVVRDENGKYKREGIAEVIRKVVVEKSGEVIRRKARELSEKMKEKGEQEIDRVVEELVQICKKKKDEQ
modifications: misc_feature - GT29-7; Panax ginseng
B2: GT29-17: Ginseng UDP-glycosyltransferase, 442 amino acids, SEQ ID NO: 24 (protein)
chain: MDNQEGRISIALLPFLAHGHISPFFELAKQLAKRNCNVFLCSTPINLSSIKNKDSSASIKLVELHLPSSPDLPPHYHTTNGLPSHLMVPLINAFETAGPTFSEILKTLNPDLLIYDFNPSWAPEIASSHNIPAVCFIIGGAASFSMSLHSFKNPGEKYPFLDFDDNSNITPEPPSADNMKLLLDFMTCFERSCDIILIKSFRELEGKYFDFYSTLSDKTLVPVGPLVQDPMGHNEDPKTEQFINWLDKRAESTVVFVCFGSEYFLSNEELEEVAIGLEISMVNFIWAVRLIEGEKKGVLPEGFVQRVGDRGLVVEGWAPQARILGHSSTGGFVSHCGWSSITESMKFGVPVIAMARHFDQPLNAKLAAEVGVGMEVVRDENGKYKREDIAGVIRKVVVEKSGEVIRRKARELSEKMKEIGEQLIDRAVEELVQICKKKKDEQ
modifications: misc_feature - GT29-17; Panax ginseng
B3: GT29-5: Ginseng UDP-glycosyltransferase, 446 amino acids, SEQ ID NO: 14 (protein)
chain: MDNQKGRISIVMLPFLAHGHISPFFELAKHLSKRNCNIFLCSTPINLSSIKNRISDKDSSASIKLVELHLPSSPDLPPHYHTTNGLPSHLMVPLRNAFETAAPTFSEILKTLNPDLLIYDFNPSWAPEIASSHNIPAVCFIIGGAASFSMSLHSFKNPGEKYPFLDFDDNSNITPEPPSADNMKLLLDFMTCFERSCDIILIKSFRELEGKYIDLLSTLSDKTLVPVGPLVQDPMGHNEDPKTEQIINWLDKRAESTVVFVCFGSEYFLSNEELEEVAIGLEISMVNFIWAVRLIEGEKKGVLPEGFVQRVGDRGLVVEGWAPQARILGHSSTGGFVSHCGWSSIAESMKFGVPVIAMARHLDQPLNGKLAAEVGVGMEVVRDENGKYKREGIAEVIRKVVVEKSGEVIRRKARELSEKMKEIGEQLIDRAVEELVQICKKKKDEQ
modifications: misc_feature - GT29-5; Panax ginseng
B4: GT29-13: Ginseng UDP-glycosyltransferase, 446 amino acids, SEQ ID NO: 22 (protein)
chain: B3 chain with I213F, L215F, L216Y, I246F, A346T, L362F, G368A, G377V, G392D, E395G
modifications: misc_feature - GT29-13; Panax ginseng
B5: GT29-9: Ginseng UDP-glycosyltransferase, 446 amino acids, SEQ ID NO: 18 (protein)
chain: B3 chain with I213F, L215F, L216Y, I246F, G392D, E395G
modifications: misc_feature - GT29-9; Panax ginseng
B6: GT29-18: Ginseng UDP-glycosyltransferase, 446 amino acids, SEQ ID NO: 26 (protein)
chain: MDNQKGRISIVMLPFLAHGHISPFFELAKHLSKRNCNIFLCSTPINLSSIKNRISDKDSSASIKLVELHLPSSPDLPPHYHTTNGLPSHLMVPLRNAFETAAPTFSEILKTLNPDLLIYDFNPSWAPEIASSHNIPAVCFIIGGAASFSMSLHSFKNPGEKYPFLDFDDNSNITPEPPSADNMKLLLDFMTCFERSCDIILIKSFRELEGKYFDFYSTLSDKTLVPVGPLVQDPMGHNEDPKTEQFINWLDKRAESTVVFVCFGSEYFLSNEELEEVAIGLEISMVNFIWAVRLIEGEKKGVLPEGFVQRVGDRGLVVEGWAPQARILGHSSTGGFVSHCGWSSITESMKFGVPVIAMARHFDQPLNAKLAAEVGVGMEVVRDENGKYKREDIAGVIRKVVVEKSGEVMRRKARELSEKMKEKGEEEIDRAVEELVQICKKKKDAQ
modifications: misc_feature - GT29-18; Panax ginseng
B7: GT29-11: Ginseng UDP-glycosyltransferase, 446 amino acids, SEQ ID NO: 20 (protein)
chain: MDNQKGRISIVMLPFLAHGHISPFFELAKHLSKRNCNIFLCSTPINLSSIKNRISDKDSSASIKLVELHLPSSPDLPPHYHTTNGLPSHLMVPLINAFETAGPTFSEILKTLNPDLLIYDFNPSWAPEIASSHNIPAVYFLTTAAASSSIGLHAFKNPGEKYPFPDFYDNSNNTPEPPSADNMKLLHDFIACFERSCDIILIKSFIELEGKYIDLLSTLSDKTLVPVGPLVQDPMGHNEDPKTEQIINWLDKRAESTVVFVCFGSEYFLSNEELEEVAIGLEISMVNFIWAVRLIEGEKKGVLPEGFVQRVGDRGLVVEGWAPQARILGHSSTGGFVSHCGWSSIAESMKFGVPVIAMARHLDQPLNGKLAAEVGVGMEVVRDENGKYKREGIAEVIRKVVVEKSGEVMRRKARELSEKMKEKGEEEIDRAVEELVQICKKKKDAQ
modifications: misc_feature - GT29-11; Panax ginseng

Numbering of substitutions follows the chain as printed.

The assay can be described thus: In vitro transglycosylation at C-6, Rg1 as glycosyl acceptor, UDP-xylose as donor. The class given is biochemical. The note with it: crude enzyme (E. coli lysate supernatant); TLC and HPLC, FIG. 7-9.
Consider B1, for which the “product formation from Rg1 and UDP-xylose (notoginsenoside R1)” value (“product formation” for short) was “can catalyze the formation of Notoginsenoside RI”.

Turning to B2, the “product formation” value was “can catalyze the formation of Notoginsenoside RI”.

With B3, the “product formation” value is reported as “can catalyze the formation of Notoginsenoside RI”.

In the case of B4, the “product formation” value is reported as “can catalyze the formation of Notoginsenoside RI”.

In the case of B5, the “product formation” value is listed as “can catalyze the formation of Notoginsenoside RI”.

Turning to B6, the “product formation” value is listed as “can catalyze the formation of Notoginsenoside RI”.

On to B7, for which the “product formation” value is given as “can catalyze the formation of Notoginsenoside RI”.

For the origin of these results see patent US12356911B2, “Group of UDP-glycosyltransferase for catalyzing carbohydrate chain elongation and application thereof” (GSYNBIOT (SHANGHAI) CO., LTD, priority 2017, dated 2025).
